Assays:
Type in all cases: in vivo, Sprague-Dawley rats
Details in all cases: rat, 7.4 nmol
[1] = Sublingual administration of 125I-IGF-I, tissue distribution by gamma counting
Description: Male Sprague-Dawley rats, 200-310 grams, were anesthetized with intraperitoneal pentobarbital (40 mg/kg). Drug delivery to the brain and spinal cord was assessed after sublingual administration of 7.4 nmol of ^125I-IGF-I in phosphate buffered saline, pH 7.4. Rats were placed in on their bellies with posterior elevated and mouth lowered. ^125I-IGF-I (7.4 nmol) on a small strip of filter paper was placed under the tongue. Such methods for sublingual administration are known in the art. Purushotham et al. Am J. Physiol. 269,G867-G873 (1995). Rats subsequently underwent perfusion-fixation within minutes following the completion of ^125I-IGF-I administration. Perfusion-fixation was performed with 50-100 ml physiologic saline followed by 500 ml of fixative containing 1.25% glutaraldehyde and 1% paraformaldehyde in 0.1 M Sorenson's phosphate buffer, pH 7.4, prior to dissection and ^125I measurement by gamma counting. Areas dissected included selected brain regions as well as the cervical, thoracic and sacral regions of the spinal cord.

[2] = Transdermal administration (skin of the face) of 125I-IGF-I, tissue distribution by gamma counting
Description: Male Sprague-Dawley rats, 200-310 grams, are anesthetized with intraperitoneal pentobarbital (40 mg/kg). Drug delivery to the brain and spinal cord was assessed after transdermal administration of 7.4 nmol of ^125I-IGF-I in phosphate buffered saline, pH 7.4. Rats are placed in on their bellies with posterior elevated and mouth lowered. ^125I-IGF-I (7.4 nmol) placed on the skin of the rat's face. Rats subsequently underwent perfusion-fixation within minutes following the completion of ^125I-IGF-I administration. Perfusion-fixation was performed with 50-100 ml physiologic saline followed by 500 ml of fixative containing 1.25% glutaraldehyde and 1% paraformaldehyde in 0.1 M Sorenson's phosphate buffer, pH 7.4, prior to dissection and ^125I measurement by gamma counting. Areas dissected included selected brain regions as well as the cervical, thoracic and sacral regions of the spinal cord.

[3] = Conjunctival administration (lower eyelid) of 125I-IGF-I, tissue distribution by gamma counting

Substance: 125I-IGF-I: insulin-like growth factor I, a single chain peptide having 70 amino acids and a molecular weight of about 7,600 daltons, radioiodinated
- concentration in meninges or dura surrounding olfactory bulb, dorsal and ventral regions of the brain, trigeminal nerve and upper cervical spinal cord [1]: High concentrations
- concentration in the trigeminal nerve itself [1]: high concentrations
- presence in the olfactory bulb, spinal cord and brain stem [1]: found
- concentration of neurologic agent in spinal cord regions (comparison) ([1]; cervical, thoracic, lumbar or sacral regions): higher in the cervical region of the spinal cord than in the thoracic region and higher in the thoracic region than in the lumbar or sacral regions
- appearance of neurologic agent in the brain and spinal cord (radioactivity) ([1]; perfusion-fixation within minutes after administration): Rapid appearance
- appearance of neurologic agent in the brain and spinal cord (radioactivity) [2]: Rapid appearance
- appearance of neurologic agent in the brain and spinal cord (radioactivity) [3]: Rapid appearance
